In EP1137786B1:

What was measured:
[1] = molecular target: CCR5 (UniProt P51681); assay: cell-based or functional assay
[2] = molecular target: CXCR4 (UniProt P61073); assay: cell-based or functional assay
[3] = molecular target: CCR5 (UniProt P51681); assay: flow cytometry on L1.2/R5 cells

CCR5, sequence (P51681 whole entry): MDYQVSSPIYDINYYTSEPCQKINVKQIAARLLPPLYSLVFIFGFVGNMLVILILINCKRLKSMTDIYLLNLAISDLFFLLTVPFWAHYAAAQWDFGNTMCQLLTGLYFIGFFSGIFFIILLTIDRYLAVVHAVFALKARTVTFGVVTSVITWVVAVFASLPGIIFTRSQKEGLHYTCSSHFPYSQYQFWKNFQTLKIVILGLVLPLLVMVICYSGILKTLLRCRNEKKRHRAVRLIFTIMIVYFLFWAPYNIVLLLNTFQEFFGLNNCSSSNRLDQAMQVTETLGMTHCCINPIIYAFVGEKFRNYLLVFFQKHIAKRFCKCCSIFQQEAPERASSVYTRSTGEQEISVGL
CXCR4, sequence (P61073 whole entry): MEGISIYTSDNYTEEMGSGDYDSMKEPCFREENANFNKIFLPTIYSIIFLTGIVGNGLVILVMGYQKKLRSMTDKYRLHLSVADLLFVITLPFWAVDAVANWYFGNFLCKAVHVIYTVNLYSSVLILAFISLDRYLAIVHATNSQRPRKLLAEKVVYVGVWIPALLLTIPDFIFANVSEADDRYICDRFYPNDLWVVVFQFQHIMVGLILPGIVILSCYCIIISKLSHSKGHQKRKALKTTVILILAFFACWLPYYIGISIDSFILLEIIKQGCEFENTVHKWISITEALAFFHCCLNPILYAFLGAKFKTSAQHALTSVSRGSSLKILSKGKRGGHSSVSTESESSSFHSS

Substance	ID90, neutralization of HIV 89.6 on U373/CD4/CCR5 cells [1] [mg/L]	ID90, neutralization of HIV ADA on U373/CD4/CCR5 cells [1] [mg/L]	ID90, neutralization of HIV BaL on U373/CD4/CCR5 cells [1] [mg/L]	ID90, neutralization of HIV 89.6 on U373/CD4/CXCR4 cells [2] [mg/L]	ID90, neutralization of HIV 2005 on U373/CD4/CXCR4 cells [2] [mg/L]	ID90, neutralization of HIV 2044 on U373/CD4/CXCR4 cells [2] [mg/L]	fold higher concentration needed to approach saturation binding, against FLSC [3] [fold]
gp120-CD4-IgG1 chimeric polypeptide (from UniProt P01730 26-208) (Fc fusion)	3.56	4.58	3.1	> 10	> 10	> 10	
truncated single chain (TcSC) gp120-CD4 chimeric polypeptide (from UniProt P01730 26-208)							10
